PMC5988292, “Crystal structures of the PH domains from Lbc family of RhoGEFs bound to activated RhoA GTPase” (Data in Brief, 2018)
Where “and” joins values, the source holds several entries; their conditions need not be identical. Equal entries are not always repeated.

B1: PH domain from human AKAP-LbcRhoGEF (residues 2195-2333) (domain or fragment, UniProt Q12802 2195-2333, looked up)
chain: YEKKVRLNEIYTKTDSKSIMRMKSGQMFAKEDLKRKKLVRDGSVFLKNAAGRLKEVQAVLLTDILVFLQEKDQKYIFASLDQKSTVISLKKLIVREVAHEEKGLFLISMGMTDPEMVEVHASSKEERNSWIQIIQDTIN
notes: AKAP-LbcRhoGEF, human, PH domain, residues 2195-2333; also called AKAP-Lbc-PH; AKAP-LbcRhoGEF-PH
B2: PH domain from mouse p114RhoGEF (residues 302-444) (domain or fragment, UniProt Q6P9R4-1 302-444, looked up)
chain: YEKDQRLKEIAAKTDQKSSGKLKNGLTFRKEDMLQQRQLHLEGALCWKSTSGRLKDVLAVLLTDVLLLLQEKDQKYVFASVDSKPPVISLQKLIVREVANEEKAMFLISASMQGPEMYEMYTSSKEDRNIWMAHIRRAVESCP
notes: p114RhoGEF, mouse, PH domain, residues 302-444; The final model holds residues 299-444, three more at the N-terminus than the stated construct; also called p114-PH; p114RhoGEF-PH
B3: p115-PH (PH domain of p115RhoGEF) (domain or fragment, UniProt Q92888 647-760, looked up)
chain: KLVHEGPLTWRVTKDKAVEVHVLLLDDLLLLLQRQDERLLLKSHSRTLTPTPDGKTMLRPVLRLTSAMTREVATDHKAFYVLFTWDQEAQIYELVAQTVSERKNWCALITETAG
notes: PH domain of p115 (Lbc-family RhoGEF)
B4: PRG-PH (non-fluorescent PH domain of PDZRhoGEF) (domain or fragment, UniProt O15085 924-1085, looked up)
chain: VKQTENRHRLEGYQKRLDATALERASNPLAAEFKSLDLTTRKMIHEGPLTWRISKDKTLDLHVLLLEDLLVLLQKQDEKLLLKCHSKTAVGSSDSKQTFSPVLKLNAVLIRSVATDKRAFFIICTSKLGPPQIYELVALTSSDKNTWMELLEEAVRNATRHP
notes: PH domain of PDZRhoGEF (PRG); also called PDZRhoGEF-PH

What follows are binders tested against T1, YFP-RhoA·GTPγS (UniProt P61586 1-193) (assay: FRET or BRET; competition: non-fluorescent PH domain titrated into 1 μM YFP-RhoA·GTPγS + 1 μM CFP-PRG-PH; 20 mM NaHEPES pH 7.5, 1 mM EDTA, 1 mM DTT, 100 mM NaCl, 5 mM MgCl2; 25 °C; ratio 525/475 nm). Conditions: both partners purified.
T1 construct: RhoA; Loaded with GTPγS

Binder	IC50
B1	~20 µM
B2	> 60 µM and ~60 µM
B3	> 150 µM
B4	3 µM
